± gives the standard error. Variants at the floor of the assay were thinned out.
B1: glmS ribozyme (parent)
chain: AUAAAAGCGCCAGAACUACAGAAAUGUAGUUGACGAGGAGGAGGUUUAUCGAAUUUUCGGCGGAUGCCUCCAAA

Variants of: B1
Assay: self-cleavage kobs at 2500 uM GlcN6P; higher = faster cleavage; RNA array
Settings: with glucosamine-6-phosphate
Method in brief: (§1)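 kobs was derived by fitting per-tile medians to one- or two-exponential decays after normalising signals to baseline and to non-cleaving reference variants. Those signals came from barcoded ribozyme variants transcribed in situ by E. coli RNA polymerase on sequenced MiSeq chips, followed through a hybridised Cy3 probe at 37 °C and imaged over ~14 h. Glucosamine-6-phosphate (40 μM to 10 mM) in HEPES/KCl/Mg(OAc)2 buffer was flowed in. Weighted Michaelis–Menten fits across concentrations then gave kcat and KM.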

Variant | self-cleavage kobs at 2500 uM GlcN6P
A6C G40A U46G G51U | < 1e-05 s⁻¹
C16U U30C C50A | < 1e-05 s⁻¹
C8U U31A G43U U55A | < 1e-05 s⁻¹
C10G A33G G51U | < 1e-05 s⁻¹
C16A A39C A42U G51C C61G | < 1e-05 s⁻¹
G29C G62C U65A | < 1e-05 s⁻¹
G13C G41A G62C | < 1e-05 s⁻¹
C34A G38U C50G | 9.01e-05 ± 3e-05 s⁻¹
G7A A14C U30A | < 1e-05 s⁻¹
G32A A39U U56A | 5.98e-05 ± 1.5e-05 s⁻¹
C16U U30C G35C U45A U55G G59U | < 1e-05 s⁻¹
G7C G9A A14U C50A | < 1e-05 s⁻¹
G7U A33U U69G | 0.000542 ± 0.00021 s⁻¹
C10A G62C C68A | 0.00024 ± 0.00011 s⁻¹
A14U A33G A52G C68U C70G C71A | 0.000285 ± 9.7e-05 s⁻¹
C8U G60U C70G | < 1e-05 s⁻¹
G29U A64G C67G | 6.02e-05 ± 1.3e-05 s⁻¹
A12U G37A C70G | 0.00013 ± 3.4e-05 s⁻¹
G32U U46C | 3.86e-05 ± 1.4e-05 s⁻¹
G29U U45C U46G | 6.29e-05 ± 2.8e-05 s⁻¹
C11U U54A C70G | 9.38e-05 ± 2.4e-05 s⁻¹
A24C G29U A64G | 0.000837 ± 0.00014 s⁻¹
A36U G63A | < 1e-05 s⁻¹

Variant | self-cleavage kobs at 2500 uM GlcN6P
G13C U31A A53G | 0.000107 ± 3.6e-05 s⁻¹
U30G A42G U65G C67U | 0.000104 ± 3.7e-05 s⁻¹
G43C A48G | < 1e-05 s⁻¹
C10G U30G A39U G44C A48C | < 1e-05 s⁻¹
C11U A15G G37C U47C U69G | 0.000136 ± 5.1e-05 s⁻¹
G41U A53U G60U C61A G66U | < 1e-05 s⁻¹
A12U U65G C70A | 6.44e-05 ± 2.6e-05 s⁻¹
A14C C16A G63A | < 1e-05 s⁻¹
G62U C68U C71A | < 1e-05 s⁻¹
A42C A48U G66C | < 1e-05 s⁻¹
A12C A15U U46A C71A | < 1e-05 s⁻¹
A6G A15U G59C | < 1e-05 s⁻¹
A6U A15G C16U | 5.09e-05 ± 1.6e-05 s⁻¹
G26U U30A A52G C71G | 0.000299 ± 0.00014 s⁻¹
G38U A39G C58U G59U | < 1e-05 s⁻¹
U47A C68G U69G | 7.59e-05 ± 3.7e-05 s⁻¹
C34U U47G G51U | < 1e-05 s⁻¹
A14G G60U G66A | < 1e-05 s⁻¹
G38U G41U C50G C68G | < 1e-05 s⁻¹
G9U A12C U30C | < 1e-05 s⁻¹
G9U C50U C68U | < 1e-05 s⁻¹
A52G G62A G63U U69G | 0.000139 ± 4.7e-05 s⁻¹
G13A G44U U45A U57A U69C | < 1e-05 s⁻¹

Variant | self-cleavage kobs at 2500 uM GlcN6P
U46G A48U C61A | < 1e-05 s⁻¹
A14U G51U G60U | < 1e-05 s⁻¹
A6C A14U C50G C61G C68G C70U | 0.000499 ± 0.00017 s⁻¹
U45C U56C G63A | < 1e-05 s⁻¹
G29A G35U G41A | < 1e-05 s⁻¹
U31A U47C U56C | 0.000498 ± 0.00011 s⁻¹
A6G A12U C67U | 0.000919 ± 0.00023 s⁻¹
G40U A48C C50U | < 1e-05 s⁻¹
G13U A53C | 9.93e-05 ± 1.9e-05 s⁻¹
C11U A14G U49C | < 1e-05 s⁻¹
U54G C58G A64G C71U | 5.26e-05 ± 2.3e-05 s⁻¹
A33C C61A G62U | < 1e-05 s⁻¹
G43A G62C A64U C70G | < 1e-05 s⁻¹
C10U G29U C61A C67G | 0.000121 ± 2.9e-05 s⁻¹
G29A G35U A42G A52U | < 1e-05 s⁻¹
A12G G32U C34U A53U | < 1e-05 s⁻¹
U30C U55C U56G U69C | < 1e-05 s⁻¹
C11G A14G G43U G60C | < 1e-05 s⁻¹
A39C A53U A64G | 0.00188 ± 0.00024 s⁻¹
U47G A48U U65G | 0.000213 ± 5.9e-05 s⁻¹
A14G G35U C67U | < 1e-05 s⁻¹
G37C A42C U69A | < 1e-05 s⁻¹
C10A C16U A64U | < 1e-05 s⁻¹

Variant | self-cleavage kobs at 2500 uM GlcN6P
G41C G44U U54A C68A C71A | < 1e-05 s⁻¹
G32A A33U G51U | < 1e-05 s⁻¹
G40C G66C | 0.000833 ± 0.00021 s⁻¹
A12C U55A C58A | 8.77e-05 ± 1.8e-05 s⁻¹
A12C A39G U47C | 0.00269 ± 0.00067 s⁻¹
G29C C34U G35A G40U G59C | < 1e-05 s⁻¹
G40C U47A G62C | < 1e-05 s⁻¹
A6U U47A U57C | < 1e-05 s⁻¹
C8A G59C C67G | < 1e-05 s⁻¹
U55C G59U | 3.25e-05 ± 1.3e-05 s⁻¹
A33C G40A A52U C61G | < 1e-05 s⁻¹
G41U U57G C70A | 0.000107 ± 1.9e-05 s⁻¹
A6C A42U G59U | < 1e-05 s⁻¹
C8A C16G G38A A64G C68A | < 1e-05 s⁻¹
A6U C8G G44C A53G | < 1e-05 s⁻¹
C58A U65G C70U | 6.2e-05 ± 2.7e-05 s⁻¹
G35C U49G G62U C71G | < 1e-05 s⁻¹
C16U U46C C61G | < 1e-05 s⁻¹
C11U A14G A33G C68A C71A | 0.000684 ± 0.00034 s⁻¹
U31A C34A C71U | < 1e-05 s⁻¹
C11U A12G A15G | 0.000326 ± 8.5e-05 s⁻¹
C10A C50U C68U | 6.13e-05 ± 2.7e-05 s⁻¹
G9C C67A C70G | < 1e-05 s⁻¹

Variant | self-cleavage kobs at 2500 uM GlcN6P
G37A A53G U55G U65G | 8.03e-05 ± 1.8e-05 s⁻¹
A39U G66A C70G | 0.000771 ± 0.00023 s⁻¹
C10U A12C G66A | 3.37e-05 ± 1.5e-05 s⁻¹
G32C A36G U47C | < 1e-05 s⁻¹
C8U G9C C11G A14C U45G C50G C71G | < 1e-05 s⁻¹
G29A U31G U54G | 6.58e-05 ± 3.2e-05 s⁻¹
C11G G13A G41A A52U A53C G63C C68G | < 1e-05 s⁻¹
C11U C16G C70G | 5.75e-05 ± 2.7e-05 s⁻¹
G13A C50A U69A | 3.87e-05 ± 1.8e-05 s⁻¹
A12C A39G U49C | < 1e-05 s⁻¹
A12G A15U G37U A42G U55A | < 1e-05 s⁻¹
G9C A42U G44U | < 1e-05 s⁻¹
A14U G32C A52U | < 1e-05 s⁻¹
G29U G37A G38C G60U | < 1e-05 s⁻¹
G13U A36U A53C | < 1e-05 s⁻¹
A14U U30C G62C U69G | < 1e-05 s⁻¹
A14U U54C U65G | 0.000411 ± 0.00014 s⁻¹
G38C G41U A42G | < 1e-05 s⁻¹
G37C U47C C58A | < 1e-05 s⁻¹
G32C G35C U56C | < 1e-05 s⁻¹
C11A G35U C58G | < 1e-05 s⁻¹
U31A A52U | 2.52e-05 ± 1.1e-05 s⁻¹
U55G C58G G60U | < 1e-05 s⁻¹

Variant | self-cleavage kobs at 2500 uM GlcN6P
A33C C50U U56C | < 1e-05 s⁻¹
C11U C34G A52U | < 1e-05 s⁻¹
G9A C61A A64U C67A | < 1e-05 s⁻¹
C11G U31A A42C | < 1e-05 s⁻¹
U54A C67A C68U | 9e-05 ± 2.1e-05 s⁻¹
G32U U56G G66U | 6.54e-05 ± 1.6e-05 s⁻¹
A15C U31A A53G C71G | 0.000222 ± 4.5e-05 s⁻¹
C8G A14G G32U A64U | < 1e-05 s⁻¹
A6C G9U C70A | < 1e-05 s⁻¹
A33C G40A A48C G51C G60C | < 1e-05 s⁻¹
A39C U47C U55A | 0.000971 ± 0.00023 s⁻¹
C16U A39U G44U C67A | 0.0154 ± 0.0045 s⁻¹
C10U A14C A15U G41A | < 1e-05 s⁻¹
G32A U47A C70G | 4.84e-05 ± 2.3e-05 s⁻¹
U31G C68U C71U | 7.95e-05 ± 3.1e-05 s⁻¹
U31G U56C G62A | < 1e-05 s⁻¹
G38U G40U C70A | < 1e-05 s⁻¹
C8A U31C A42U U65G | < 1e-05 s⁻¹
G9C C16A C34A G44C A64G | < 1e-05 s⁻¹
G35C G43U U69G | < 1e-05 s⁻¹
A39U U46G C70A | 0.000101 ± 2.8e-05 s⁻¹
U31G A36U C50A C71G | 0.000265 ± 0.00012 s⁻¹
A12U G38U U49A | < 1e-05 s⁻¹

Variant | self-cleavage kobs at 2500 uM GlcN6P
G9C A14U G29C | < 1e-05 s⁻¹
A14G U55G G66U | 0.00182 ± 0.00038 s⁻¹
C50G C58A G66A | 0.000121 ± 4.3e-05 s⁻¹
G9C A15G U45G | < 1e-05 s⁻¹
G32U G38U C67U | < 1e-05 s⁻¹
U30A G41U U55G G59A U69A | < 1e-05 s⁻¹
G13U G43U C61G | < 1e-05 s⁻¹
G13U G35A U57A U65G | < 1e-05 s⁻¹
G32U A48U G51C | < 1e-05 s⁻¹
G7U C11U G51C | < 1e-05 s⁻¹
C8U A12U C34A | < 1e-05 s⁻¹
A52U U57A C67U | 0.000441 ± 9.6e-05 s⁻¹
U47G C50A A64C | 0.000126 ± 3.2e-05 s⁻¹
G9U G29U U31A U46A | < 1e-05 s⁻¹
C11U U46A G62A | < 1e-05 s⁻¹
A33C A39G C70A | < 1e-05 s⁻¹
G35A C50A U55C G62A A64U | < 1e-05 s⁻¹
C10U G29U U57C | < 1e-05 s⁻¹

Variants of: B1
Assay: self-cleavage kobs at 10000 uM GlcN6P; higher = faster cleavage; RNA array
Settings: with glucosamine-6-phosphate
Method in brief: as §1

Variant | self-cleavage kobs at 10000 uM GlcN6P
C10G A33G G51U | < 1e-05 s⁻¹
A12U G37A C70G | 9.11e-05 ± 2.1e-05 s⁻¹
G32U U46C | 0.000136 ± 1.8e-05 s⁻¹
G13C U31A A53G | 0.000294 ± 5.7e-05 s⁻¹
A12U U65G C70A | 0.000122 ± 2.2e-05 s⁻¹
A42C A48U G66C | < 1e-05 s⁻¹
U31A U47C U56C | 0.000333 ± 6.1e-05 s⁻¹
U54G C58G A64G C71U | 4.18e-05 ± 1.4e-05 s⁻¹
G40C G66C | 0.000531 ± 6.3e-05 s⁻¹
G29C C34U G35A G40U G59C | < 1e-05 s⁻¹
U55C G59U | 2.55e-05 ± 1.2e-05 s⁻¹
C11U A12G A15G | 0.000749 ± 0.00017 s⁻¹
C11U C16G C70G | 0.000142 ± 4.4e-05 s⁻¹
G13U A36U A53C | < 1e-05 s⁻¹
U31A A52U | 8.67e-05 ± 1.5e-05 s⁻¹
C11U C34G A52U | < 1e-05 s⁻¹
C11G U31A A42C | < 1e-05 s⁻¹
A6C G9U C70A | < 1e-05 s⁻¹
C8A U31C A42U U65G | < 1e-05 s⁻¹
A39U U46G C70A | 0.000162 ± 3.2e-05 s⁻¹
A14G U55G G66U | 0.00253 ± 0.00062 s⁻¹
G13U G35A U57A U65G | < 1e-05 s⁻¹
A52U U57A C67U | 0.000894 ± 0.0002 s⁻¹
G35A C50A U55C G62A A64U | < 1e-05 s⁻¹

Reference: the supplement of paper PMC7125110
